The target in this test is T1, B7H3 target antigen (UniProt Q5ZPR3 29-466, limits assumed).
T1 construct: Control antigen is called 'other biotin-free antigen', which hints that this antigen may be biotinylated; also called B7H3 antigen; B7-H3 antigen
T1 sequence (looked up): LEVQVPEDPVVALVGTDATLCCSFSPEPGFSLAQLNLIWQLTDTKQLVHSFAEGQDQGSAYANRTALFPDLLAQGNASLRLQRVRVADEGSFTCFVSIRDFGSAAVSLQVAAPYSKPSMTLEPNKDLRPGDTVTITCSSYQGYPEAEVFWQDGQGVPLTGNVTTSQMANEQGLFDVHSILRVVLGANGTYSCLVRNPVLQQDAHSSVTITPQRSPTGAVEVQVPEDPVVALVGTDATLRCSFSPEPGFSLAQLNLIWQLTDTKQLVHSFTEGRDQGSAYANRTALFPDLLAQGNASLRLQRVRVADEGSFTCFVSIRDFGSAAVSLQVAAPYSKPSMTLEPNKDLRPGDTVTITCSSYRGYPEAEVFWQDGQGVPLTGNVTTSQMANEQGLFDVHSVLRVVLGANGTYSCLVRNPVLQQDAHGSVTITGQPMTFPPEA
As to the kind of experiment: Biacore SPR, antibody captured on Protein A chip, antigen flowed, Langmuir fit. (Surface plasmon resonance follows binding to a sensor surface in real time, without labels.)

Method: The B7-H3 antigen was allowed to flow over the chip surface using a series of concentration gradients. The binding time was 120 s, and the dissociation time was 120 s. After the cycle dissociation was completed, the biochip was washed with glycine-hydrochloric acid (pH=1.5) buffer, the sample injection was performed at 30 μL/min, and regeneration was performed for 30 s. Reaction signals were detected in real time using a Biacore instrument, and thus binding and dissociation curves were obtained.
The data obtained from the experiment were fitted with the Langmuir model using GE software.

B1: purified B7H3-02 scFv protein (prokaryotic expression, pET-22b) (scFv)
scFv: EVQLFQSGGGLVQPGGSLRLSCAASGFTFSSYAMSWVRQAPGKGLEWVSAISGSGGSTYYADSVKGRFTISRDNSKNTLYLQMNSLRAEDTAVYYCARGVGRGFDYWGQGTTVTVSSSGGGSGGGGSGGGGSDIQLTQSPSSLSASVGDRVTITCRASQSISIYLNWYRQQPGKAPKLLIYAASSLQSGVPSRFSGSGSGTDFTLTISSLQPEDFATYFCQQTYSTPPWTFGQGTKVDIK
notes: The Biacore experiment speaks of 'purified B7H3-02 antibodies' captured on a Protein A chip; also called B7H3-02 scFv antibody; B7H3-02 antibody; not shown: His tag implied (detected with His antibodies, pET-22b vector)
Broadly, the Kd is the concentration at which binding is half-saturated. Higher therefore signals weaker binding. B1: the affinity, expressed as Kd, was 27.8 nM. This counts as double-digit nanomolar.

(Values after patent publication US20240245771A1 (XUZHOU MEDICAL UNIVERSITY, published 2024).)
